Publication PMC10617564, “Efficient clathrin-mediated entry of enteric adenoviruses in human duodenal cells” (Journal of Virology, 2023)

Biological target: CAR (CXADR Fc chimera full-length extracellular D1D2 domain) (UniProt P78310)
Test: SPR; Biacore T-200; CAR-Fc amine-coupled to a CM5 chip (~1,500 response units); analytes in twofold dilutions 2000 to 7.81125 nM, injected 120 s at 30 uL/min; 25°C; 10 mM phosphate buffer pH 7.4, 140 mM NaCl, 0.27 mM KCl, 0.05% Tween20; regeneration with 10 mM glycine pH 1.5; three independent experiments

CAR (CXADR Fc chimera full-length extracellular D1D2 domain), sequence (P78310 20-237, change not shown): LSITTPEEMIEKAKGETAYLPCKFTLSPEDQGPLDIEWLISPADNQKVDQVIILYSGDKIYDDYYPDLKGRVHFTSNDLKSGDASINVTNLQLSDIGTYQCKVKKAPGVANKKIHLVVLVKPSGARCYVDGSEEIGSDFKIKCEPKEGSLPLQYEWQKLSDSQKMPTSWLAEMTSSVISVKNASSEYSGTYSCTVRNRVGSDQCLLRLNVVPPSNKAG
HAdV-F41 long fiber knob (domain or fragment), sequence (P14267 363-562 limits assumed): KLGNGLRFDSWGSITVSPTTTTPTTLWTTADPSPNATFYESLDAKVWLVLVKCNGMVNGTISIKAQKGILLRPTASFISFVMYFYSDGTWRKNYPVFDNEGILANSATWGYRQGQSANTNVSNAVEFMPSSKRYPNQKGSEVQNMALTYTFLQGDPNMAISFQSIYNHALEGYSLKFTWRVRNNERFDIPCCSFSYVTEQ
HAdV-F40 long fiber knob (domain or fragment), sequence (P18047 348-547 limits assumed): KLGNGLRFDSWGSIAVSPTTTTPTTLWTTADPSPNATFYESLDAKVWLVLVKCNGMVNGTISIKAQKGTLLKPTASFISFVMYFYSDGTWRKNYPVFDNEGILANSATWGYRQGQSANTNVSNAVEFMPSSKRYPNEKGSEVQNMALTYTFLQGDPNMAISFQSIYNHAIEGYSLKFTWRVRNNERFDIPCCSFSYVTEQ

Substance	Kd
HAdV-F41 long fiber knob (domain or fragment)	6.34 nM
HAdV-F40 long fiber knob (domain or fragment)	25.5 nM
